According to article PMC11161584:

Target: PTRAMP-CSS heterodimer (Plasmodium thrombospondin-related apical merozoite protein with small cystei (P. falciparum (3D7 clone)))
Assay: SPR

RH5-interacting protein (RIPR), full-length soluble recombinant protein (from UniProt O97302 20-1086) (natural protein)
Kd: 4.5 µM
